Laboratory results taken from patent publication US20090169520A1 (YISSUM RESEARCH DEVELOPMENT COMPANY OF THE HEBREW …, published 2009).

Target: synthetic Aβ (1-40) peptide (Biosource) (UniProt P05067 672-711)
Test: cell-based or functional assay

Chain of synthetic Aβ (1-40) peptide (Biosource) (P05067 672-711 limits assumed): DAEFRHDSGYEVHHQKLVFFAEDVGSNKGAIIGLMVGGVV

Binder: GNIDEAEWEWKAGFHRWNNYMMDWKNQFNDYTSKKESCVGL [BSP41 (synthetic BChE C-terminal peptide, residues 562-602 of hBChE)]
- Lag (fold change) of Aβ fibrillation against no addition: > 1.9 fold
- Lag (h) before onset of Aβ fibrillation: > 7.5 h
- Rate (fold change) of Aβ fibrillation against no addition: 0.4 fold

Binder: DTLDEAERQWKAEFHRWSSYMVHWKNQFDHYSKQDRCSDL [ASP40 (synthetic AChE-S C-terminal peptide, residues 575-614 of hAChE)]
- Lag (fold change) of Aβ fibrillation against no addition: 1.1 fold
- Lag (h) before onset of Aβ fibrillation: 4.4 h
- Rate (fold change) of Aβ fibrillation against no addition: 0.8 fold

B1: ASP63 (synthetic AChE-S C-terminal peptide, residues 548-610 of hAChE) (peptide)
peptide: PLEVRRGLRAQACAFWNRFLPKLLSATDTLDEAERQWKAEFHRWSSYMVHWKNQFDHYSKQDR
- Lag (fold change) of Aβ fibrillation against no addition: 1.5 fold
- Lag (h) before onset of Aβ fibrillation: 5.9 h
- Rate (fold change) of Aβ fibrillation against no addition: 0.7 fold
